Assay results published in paper doi:10.1101/2020.04.29.068361.

Biological target: Meiothermus taiwanensis LonA (Lon AAA+ protease), wild type, full length (Meiothermus taiwanensis)
Experiment: cryo-EM structure

- stoichiometry N: 6
Substance: Meiothermus taiwanensis LonA (Lon AAA+ protease), wild type, full length (enzyme)
